Source: patent US20210130452A1 (Merck KGaA, published 2021)

Experiments:
mouse IL-17A = biological target: T1, mouse IL-17A (mouse, UniProt Q62386 26-158); test: binding ELISA
T1 sequence (looked up): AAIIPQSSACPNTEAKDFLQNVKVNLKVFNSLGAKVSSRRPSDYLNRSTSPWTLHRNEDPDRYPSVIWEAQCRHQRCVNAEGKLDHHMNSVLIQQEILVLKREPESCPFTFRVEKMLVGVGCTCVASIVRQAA
Description: (§1) Binding of a selected panel of anti-IL-17 Nanobodies to IL-17 of other species was assessed using a binding ELISA. […] HRP (horseradish peroxidase) conjugated anti-myc (Serotec, MCA 2200P) was used for detection using esTMB as substrate.

rat IL-17A = biological target: T2, rat IL-17A (rat, UniProt Q61453 18-150, limits assumed); test: binding ELISA
T2 construct: made in E. coli, bought
T2 sequence (looked up): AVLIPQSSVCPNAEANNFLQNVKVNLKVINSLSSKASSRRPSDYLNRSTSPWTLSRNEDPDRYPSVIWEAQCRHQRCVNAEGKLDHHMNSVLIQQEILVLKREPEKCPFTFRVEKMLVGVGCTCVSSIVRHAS
Description: as §1

human IL-17B = biological target: T3, human IL-17B (human, UniProt Q9UHF5 21-180); test: SPR, cytokine on chip
T3 construct: expressed in E. coli; also called hIL-17B
T3 sequence (looked up): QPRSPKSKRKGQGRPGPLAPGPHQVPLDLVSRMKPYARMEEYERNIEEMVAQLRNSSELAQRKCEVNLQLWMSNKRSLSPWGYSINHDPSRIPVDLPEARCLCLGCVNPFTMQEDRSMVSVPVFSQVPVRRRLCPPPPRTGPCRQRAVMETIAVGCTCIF
Excerpt: (§2) Human IL-17B, IL-17C, IL-17D or IL-17E were all expressed in E. coli, and covalently bound to a CM sensor chip surface via amine coupling using EDC/NHS for activation and HCl for deactivation.
(§3) Next, binding buffer was sent over the chip at the same flow rate to allow spontaneous dissociation of bound Nanobody or antibody.

human IL-17C = biological target: T4, human IL-17C (human, UniProt Q9P0M4 19-197); test: SPR, cytokine on chip
T4 construct: expressed in E. coli; also called hIL-17C
T4 sequence (looked up): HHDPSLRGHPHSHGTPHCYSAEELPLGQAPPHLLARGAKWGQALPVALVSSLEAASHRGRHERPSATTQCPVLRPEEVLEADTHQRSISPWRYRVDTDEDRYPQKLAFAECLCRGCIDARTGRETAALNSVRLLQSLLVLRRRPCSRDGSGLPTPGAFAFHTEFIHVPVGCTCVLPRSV
Excerpt: as §2, §3

human IL-17D = biological target: T5, human IL-17D (human, UniProt Q8TAD2 18-202, limits assumed); test: SPR, cytokine on chip
T5 construct: expressed in E. coli; also called hIL-17D
T5 sequence (looked up): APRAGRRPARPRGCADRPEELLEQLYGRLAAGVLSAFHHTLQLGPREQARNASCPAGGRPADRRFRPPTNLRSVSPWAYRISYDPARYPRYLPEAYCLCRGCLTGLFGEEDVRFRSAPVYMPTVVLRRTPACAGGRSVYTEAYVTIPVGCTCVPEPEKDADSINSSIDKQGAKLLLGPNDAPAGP
Excerpt: as §2, §3

human IL-17E = biological target: T6, human IL-17E (human, UniProt Q9H293 33-177); test: SPR, cytokine on chip
T6 construct: expressed in E. coli; also called hIL-17E
T6 sequence (looked up): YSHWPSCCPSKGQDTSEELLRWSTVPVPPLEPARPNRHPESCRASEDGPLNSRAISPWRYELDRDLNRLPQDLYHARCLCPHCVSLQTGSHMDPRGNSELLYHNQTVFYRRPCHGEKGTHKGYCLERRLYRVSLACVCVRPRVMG
Excerpt: as §2, §3

mouse IL-17F = biological target: T7, mouse IL-17F (mouse, UniProt Q7TNI7 29-161); test: binding ELISA
T7 sequence (looked up): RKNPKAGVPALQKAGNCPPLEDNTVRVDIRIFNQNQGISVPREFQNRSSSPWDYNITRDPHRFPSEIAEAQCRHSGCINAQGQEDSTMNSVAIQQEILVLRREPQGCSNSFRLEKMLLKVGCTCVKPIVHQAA
Description: as §1

rat IL-17F = biological target: T8, rat IL-17F (rat, UniProt Q5BJ95 29-161); test: binding ELISA
T8 sequence (looked up): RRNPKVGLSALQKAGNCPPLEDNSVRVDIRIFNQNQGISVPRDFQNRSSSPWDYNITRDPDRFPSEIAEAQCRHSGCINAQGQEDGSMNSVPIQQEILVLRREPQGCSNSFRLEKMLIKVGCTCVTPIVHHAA
Description: as §1

human IL-17F [1] = biological target: T9, human IL-17F (human, UniProt Q96PD4 31-163); test: SPR (Biacore) off-rate
T9 construct: made in Hek293 cells (GenBank AF384857); also called hIL-17F; hIL17F
T9 sequence: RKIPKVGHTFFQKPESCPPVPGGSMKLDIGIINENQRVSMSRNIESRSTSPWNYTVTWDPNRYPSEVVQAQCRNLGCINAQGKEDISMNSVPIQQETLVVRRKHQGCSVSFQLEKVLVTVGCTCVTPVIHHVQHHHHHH

human IL-17A = biological target: T10, human IL-17A (human, UniProt Q16552 24-155); test: AlphaScreen hIL-17A-IL-17RA; vs IL17MS13E02
T10 construct: secreted form made in Hek293 cells (GenBank U32659); also called hIL-17A; hIL17A

human IL-17F [2] = biological target: T9, human IL-17F; test: AlphaScreen hIL-17F-IL-17RC; vs IL17MS13E02

T10 sequence (Q16552 other isoform, or with tags, fused parts or gaps): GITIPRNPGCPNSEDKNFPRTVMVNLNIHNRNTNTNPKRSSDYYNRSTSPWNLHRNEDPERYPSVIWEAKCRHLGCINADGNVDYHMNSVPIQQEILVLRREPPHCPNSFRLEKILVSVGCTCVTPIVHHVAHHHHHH

B1: 04G01 (VHH)
VHH: EVQLVESGGGLVQAGGSQRLSCTASGTIVNIHVMGWYRQAPGKQRELVALIFSGGSADYADSVKGRFTISRDNAKNTVYLEMNSLKAEDTAVYYCAAEIGYYSGGTYYSSEAHWGQGTQVTVSS
notes: Class 2; also called IL17MS04G01; 04G1
Mouse IL-17A
  binding result: no binding (tested: 250 nM)
Rat IL-17A
  binding result: no binding (tested: 250 nM)
Human IL-17B
  binding result: no binding
Human IL-17C
  binding result: no binding
Human IL-17D
  binding result: no binding
Human IL-17E
  binding result: no binding

B2: 11A06 (VHH)
VHH: EVQLVESGGGLVQPGESLRLSCKASGFSLDYYALGWFRQAPGKEREGISCITSSDASAYYTDSVKGRFTISRDNSKNTVYLQMNSLKTEDTAIYYCAAALLTCSSYYDAYTYWGQGTQVTVSS
notes: Class 2
Mouse IL-17A
  binding result: no binding (tested: 250 nM)
Rat IL-17A
  binding result: no binding (tested: 250 nM)
Human IL-17B
  binding result: no binding
Human IL-17C
  binding result: no binding
Human IL-17D
  binding result: no binding
Human IL-17E
  binding result: no binding

B3: 09G10 (VHH)
VHH: EVQLVESGGGLVQAGGSLRLSCAASDSVFTAKAVGWYRQPPGLQREWVAIITSGGKTNYADSSVKGRFTVSVDKVKNTVTLQMNSLKPEDTAVYYCYAQWMGRDYWGQGTQVTVSS
notes: Class 2
Mouse IL-17A
  binding result: no binding (tested: 250 nM)
Rat IL-17A
  binding result: no binding (tested: 250 nM)
Human IL-17B
  binding result: no binding
Human IL-17C
  binding result: no binding
Human IL-17D
  binding result: no binding
Human IL-17E
  binding result: no binding

B4: 04B09 (VHH)
VHH: EVQLVESGGGLVQPGGSLRLSCAASGFTLGYYAIGWFRQAPGKEREGVSCDSSSDGDTYYANSVKGRFTISTDNGKNTVYLQMNSLKPEDTAVYYCATCTDWNYDYWGQGTQVTVSS
notes: Class 2; also called 04B9
Mouse IL-17A
  binding result: no binding (tested: 250 nM)
Rat IL-17A
  binding result: no binding (tested: 250 nM)
Human IL-17B
  binding result: no binding
Human IL-17C
  binding result: no binding
Human IL-17D
  binding result: no binding
Human IL-17E
  binding result: no binding

B5: 01A01 (VHH)
VHH: EVQLVESGGGLVQAGGSLRLSCAASGFTFDDYDIGWFRQAPGKEREGVSCFTSSDGRTFYADSVKGRFTVSADNAKNTVYLQMNSLEPEDTAVYFCAAVNTFDESAYAAFACYDVVRWGQGTQVTVSS
notes: Class 4
Mouse IL-17A
  binding result: no binding (tested: 250 nM)
Rat IL-17A
  binding result: no binding (tested: 250 nM)
Mouse IL-17F
  binding result: no binding (tested: 250 nM)
Rat IL-17F
  binding result: no binding (tested: 250 nM)
Human IL-17B
  binding result: no binding
Human IL-17C
  binding result: no binding
Human IL-17D
  binding result: no binding
Human IL-17E
  binding result: no binding

B6: 11C08 (VHH)
VHH: EVQLVESGGGLVQAGGSLRLSCAASGVIFRLNAMGWYRAAPGKQRELVAIIVNGGSTNYADSVKGRFTISRDSAKNAVYLQMNSLKPEDTAVYYCYYNIPGDVYWGQGTQVTVSS
notes: Class 4
Mouse IL-17A
  binding result: no binding (tested: 250 nM)
Rat IL-17A
  binding result: no binding (tested: 250 nM)
Mouse IL-17F
  binding result: no binding (tested: 250 nM)
Rat IL-17F
  binding result: no binding (tested: 250 nM)
Human IL-17B
  binding result: no binding
Human IL-17C
  binding result: no binding
Human IL-17D
  binding result: no binding
Human IL-17E
  binding result: no binding

B7: IL17MS3027 (VHH)
VHH: EVQLVESGGGLVQPGGSLRLSCAASGRTYDAMGWLRQAPGKEREFVAAISGSGDDTYYADSVKGRFTISRDNSGNTMYLQMNSLRPEDTAVYYCATRRGLYYVWDSNDYENWGQGTLVTVSS
notes: variant of IL17MS13E02; Kabat numbering
Human IL-17F [1]
  koff: 0.0013 s⁻¹
Human IL-17A
  IC50 fold difference vs WT: 1.23 fold
Human IL-17F [2]
  IC50 fold difference vs WT: 0.6 fold

B8: 13E02 (VHH)
VHH: EVQLVESGGGLVQAGGSLRLSCAASGRTYDAMGWLRQAPGKEREFVAAISGSGDDTYYADSVKGRFTISKDNAGITMYLQMNSLKPEDTAVYYCATRRGLYYVWDSNDYENWGQGTQVTVSS
notes: Class 4; also called IL17MS13E02
Mouse IL-17A
  binding result: no binding (tested: 250 nM)
Rat IL-17A
  binding result: no binding (tested: 250 nM)
Mouse IL-17F
  binding result: no binding (tested: 250 nM)
Rat IL-17F
  binding result: no binding (tested: 250 nM)
Human IL-17B
  binding result: no binding
Human IL-17C
  binding result: no binding
Human IL-17D
  binding result: no binding
Human IL-17E
  binding result: no binding

B9: 13B05 (VHH)
VHH: EVQLVESGGRLVQAGGSLRLSCAASGRTFTSYPMGWFRQAPGKEREFVAAISMSGDDTAYTDFVRGRFTISRDDARNTVYLHMTSLKPEDTAVYYCAARTSYDGTYDYIDDYSYWGQGTQVTVSS
notes: Class 4
Mouse IL-17A
  binding result: no binding (tested: 250 nM)
Rat IL-17A
  binding result: no binding (tested: 250 nM)
Mouse IL-17F
  binding result: no binding (tested: 250 nM)
Rat IL-17F
  binding result: no binding (tested: 250 nM)
Human IL-17B
  binding result: no binding
Human IL-17C
  binding result: no binding
Human IL-17D
  binding result: no binding
Human IL-17E
  binding result: no binding

B10: 17C01 (VHH)
VHH: EVQLVESGGRLVQAGGSLRLPCAASGRTFTSYPMGWFRQAPGKEREFVAAISMSGDDAAYADFVRGRFTISRDDARNTVYLHMTSLKPEDTAVYYCAARTSYDGTYDYIDDYSYWGQGTQVTVSS
notes: Class 4
Mouse IL-17A
  binding result: no binding (tested: 250 nM)
Rat IL-17A
  binding result: no binding (tested: 250 nM)
Mouse IL-17F
  binding result: no binding (tested: 250 nM)
Rat IL-17F
  binding result: no binding (tested: 250 nM)
Human IL-17B
  binding result: no binding
Human IL-17C
  binding result: no binding
Human IL-17D
  binding result: no binding
Human IL-17E
  binding result: no binding

B11: 03C07 (VHH)
VHH: EVQLVESGGGLVQAGGSLRLSCAASGFTFDDYAIGWFRQAPGKEREAVSCFSSSDGSIYYADSVKGRFTISSDNAKNTVYLQMNSLKPEDTAVYYCAGGGGSYYYTQLNYCYDMDYWGKGTQVTVSS
notes: Class 2
Mouse IL-17A
  binding result: no binding (tested: 250 nM)
Rat IL-17A
  binding result: no binding (tested: 250 nM)
Human IL-17B
  binding result: no binding
Human IL-17C
  binding result: no binding
Human IL-17D
  binding result: no binding
Human IL-17E
  binding result: no binding

B12: 13B03 (VHH)
VHH: EVQLVESGGGSVQAGDSLRLSCAASGRANSINWFGWFRQTPGKEREFVAGIRWSDAYTEYANSVKGRFTISRDNAKNTVDLQMDSLKPEDTAVYYCVLDLSTVRYWGQGTQVTVSS
notes: Class 4; also called IL17MS13B03
Mouse IL-17A
  binding result: no binding (tested: 250 nM)
Rat IL-17A
  binding result: no binding (tested: 250 nM)
Mouse IL-17F
  binding result: no binding (tested: 250 nM)
Rat IL-17F
  binding result: no binding (tested: 250 nM)
Human IL-17B
  binding result: no binding
Human IL-17C
  binding result: no binding
Human IL-17D
  binding result: no binding
Human IL-17E
  binding result: no binding
